# Test results from FireProtDB (doi:10.1021/bi047926u).
# Values joined by “and” are separate entries in the source; they are usually repeats but may differ in a detail not shown here. Equal entries are not always repeated.
# Conditions: Bacillus subtilis (strain 168); pH 7.2; Thermal; CD; TES-KOH 21 mM; KCl 4 mM; reversible: No; whole UniProt chain shown
protein,measurement,value
"Manganese-dependent inorganic pyrophosphatase wild type, P37487 (protein) MEKILIFGHQNPDTDTICSAIAYADLKNKLGFNAEPVRLGQVNGETQYALDYFKQESPRLVETAANEVNGVILVDHNERQQSIKDIEEVQVLEVIDHHRIANFETAEPLYYRAEPVGCTATILNKMYKENNVKIEKEIAGLMLSAIISDSLLFKSPTCTDQDVAAAKELAEIAGVDAEEYGLNMLKAGADLSKKTVEELISLDAKEFTLGSKKVEIAQVNTVDIEDVKKRQAELEAVISKVVAEKNLDLFLLVITDILENDSLALAIGNEAAKVEKAFNVTLENNTALLKGVVSRKKQVVPVLTDAMAE",Tm,50 °C and 46 °C
